Patent US9618524B2, “Method, composition, isolation and identification of a plaque particle and related biomarker” (Plaxgen Inc., priority 2012, dated 2017)

B1: Isoform 2 of Spermatid perinuclear RNA-binding protein (protein)
chain: MVKHSTIYPSPEELEAVQNMVSTVECALKHVSDWLDETNKGTKTEGETEVKKDEAGENYSKDQGGRTLCGVMRIGLVAKGLLIKDDMDLELVLMCKDKPTETLLNTVKDNLPIQIQKLTEEKYQVEQCVNEASIIIRNTKEPTLTLKVILTSPLIRDELEKKDGENVSMKDPPDLLDRQKCLNALASLRHAKWFQARANGLKSCVIVLRILRDLCNRVPTWAPLKGWPLELICEKSIGTCNRPLGAGEALRRVMECLASGILLPGGPGLHDPCERDPTDALSYMTIQQKEDITHSAQHALRLSAFGQIYKVLEMDPLPSSKPFQKYSWSVTDKEGAGSSALKRPFEDGLGDDKDPNKKMKRNLRKILDSKAIDLMNALMRLNQIRPGLQYKLLSQSGPVHAPVFTMSVDVDGTTYEASGPSKKTAKLHVAVKVLQAMGYPTGFDADIECMSSDEKSDNESKNETVSSNSSNNTGNSTTETSSTLEVRTQGPILTASGKNPVMELNEKRRGLKYELISETGGSHDKRFVMEVEVDGQKFRGAGPNKKVAKASAALAALEKLFSGPNAANNKKKKIIPQAKGVVNTAVSAAVQAVRGRGRGTLTRGAFVGATAAPGYIAPGYGTPYGYSTAAPAYGLPKRMVLLPVMKFPTYPVPHYSFF
B2: Cluster of Interleukin enhancer-binding factor 3 (protein, UniProt Q12906 1-894, looked up)
Interleukin enhancer-binding …: MRPMRIFVNDDRHVMAKHSSVYPTQEELEAVQNMVSHTERALKAVSDWIDEQEKGSSEQAESDNMDVPPEDDSKEGAGEQKTEHMTRTLRGVMRVGLVAKGLLLKGDLDLELVLLCKEKPTTALLDKVADNLAIQLAAVTEDKYEILQSVDDAAIVIKNTKEPPLSLTIHLTSPVVREEMEKVLAGETLSVNDPPDVLDRQKCLAALASLRHAKWFQARANGLKSCVIVIRVLRDLCTRVPTWGPLRGWPLELLCEKSIGTANRPMGAGEALRRVLECLASGIVMPDGSGIYDPCEKEATDAIGHLDRQQREDITQSAQHALRLAAFGQLHKVLGMDPLPSKMPKKPKNENPVDYTVQIPPSTTYAITPMKRPMEEDGEEKSPSKKKKKIQKKEEKAEPPQAMNALMRLNQLKPGLQYKLVSQTGPVHAPIFTMSVEVDGNSFEASGPSKKTAKLHVAVKVLQDMGLPTGAEGRDSSKGEDSAEETEAKPAVVAPAPVVEAVSTPSAAFPSDATAEQGPILTKHGKNPVMELNEKRRGLKYELISETGGSHDKRFVMEVEVDGQKFQGAGSNKKVAKAYAALAALEKLFPDTPLALDANKKKRAPVPVRGGPKFAAKPHNPGFGMGGPMHNEVPPPPNLRGRGRGGSIRGRGRGRGFGGANHGGYMNAGAGYGSYGYGGNSATAGYSQFYSNGGHSGNASGGGGGGGGGSSGYGSYYQGDNYNSPVPPKHAGKKQPHGGQQKPSYGSGYQSHQGQQQSYNQSPYSNYGPPQGKQKGYNHGQGSYSYSNSYNSPGGGGGSDYNYESKFNYSGSGGRSGGNSYGSGGASYNPGSHGGYGGGSGGGSSYQGKQGGYSQSNYNSPGSGQNYSGPPSSYQSSQGGYGRNADHSMNYQYR
B3: Interleukin enhancer-binding factor 3 (protein)
chain: B2 Interleukin enhancer-binding …
B4: Coagulation factor XIII B chain (protein)
chain: EEKPCGFPHVENGRIAQYYYTFKSFYFPMSIDKKLSFFCLAGYTTESGRQEEQTTCTTEGWSPEPRCFKKCTKPDLSNGYISDVKLLYKIQENMRYGCASGYKTTGGKDEEVVQCLSDGWSSQPTCRKEHETCLAPELYNGNYSTTQKTFKVKDKVQYECATGYYTAGGKKTEEVECLTYGWSLTPKCTKLKCSSLRLIENGYFHPVKQTYEEGDVVQFFCHENYYLSGSDLIQCYNFGWYPESPVCEGRRNRCPPPPLPINSKIQTHSTTYRHGEIVHIECELNFEIHGSAEIRCEDGKWTEPPKCIEGQEKVACEEPPFIENGAANLHSKIYYNGDKVTYACKSGYLLHGSNEITCNRGKWTLPPECVENNENCKHPPVVMNGAVADGILASYATGSSVEYRCNEYYLLRGSKISRCEQGKWSSPPVCLEPCTVNVDYMNRNNIEMKWKYEGKVLHGDLIDFVCKQGYDLSPLTPLSELSVQCNRGEVKYPLCTRKESKGMCTSPPLIKHGVIISSTVDTYENGSSVEYRCFDHHFLEGSREAYCLDGMWTTPPLCLEPCTLSFTEMEKNNLLLKWDFDNRPHILHGEYIEFICRGDTYPAELYITGSILRMQCDRGQLKYPRCIPRQSTLSYQEPLRT
B5: Histone H1.3 (protein)
chain: SETAPLAPTIPAPAEKTPVKKKAKKAGATAGKRKASGPPVSELITKAVAASKERSGVSLAALKKALAAAGYDVEKNNSRIKLGLKSLVSKGTLVQTKGTGASGSFKLNKKAASGEGKPKAKKAGAAKPRKPAGAAKKPKKVAGAATPKKSIKKTPKKVKKPATAAGTKKVAKSAKKVKTPQPKKAAKSPAKAKAPKPKAAKPKSGKPKVTKAKKAAPKKK
B6: Isoform 2 of Arginase-1 (protein)
chain: MSAKSRTIGIIGAPFSKGQPRGGVEEGPTVLRKAGLLEKLKEQVTQNFLILECDVKDYGDLPFADIPNDSPFQIVKNPRSVGKASEQLAGKVAEVKKNGRISLVLGGDHSLAIGSISGHARVHPDLGVIWVDAHTDINTPLTTTSGNLHGQPVSFLLKELKGKIPDVPGFSWVTPCISAKDIVYIGLRDVDPGEHYILKTLGIKYFSMTEVDRLGIGKVMEETLSYLLGRKKRPIHLSFDVDGLDPSFTPATGTPVVGGLTYREGLYITEEIYKTGLLSGLDIMEVNPSLGKTPEEVTRTVNTAVAITLACFGLAREGNHKPIDYLNPPK
B7: Caspase-14 (protein)
chain: MSNPRSLEEEKYDMSGARLALILCVTKAREGSEEDLDALEHMFRQLRFESTMKRDPTAEQFQEELEKFQQAIDSREDPVSCAFVVLMAHGREGFLKGEDGEMVKLENLFEALNNKNCQALRAKPKVYIIQACRGEQRDPGETVGGDEIVMVIKDSPQTIPTYTDALHVYSTVEGYIAYRHDQKGSCFIQTLVDVFTKRKGHILELLTEVTRRMAEAELVQEGKARKTNPEIQSTLRKRLYLQ
B8: Isoform 1B of Desmocollin-1 (protein)
chain: RWAPIPASLMENSLGPFPQHVQQIQSDAAQNYTIFYSISGPGVDKEPFNLFYIEKDTGDIFCTRSIDREKYEQFALYGYATTADGYAPEYPLPLIIKIEDDNDNAPYFEHRVTIFTVPENCRSGTSVGKVTATDLDEPDTLHTRLKYKILQQIPDHPKHFSIHPDTGVITTTTPFLDREKCDTYQLIMEVRDMGGQPFGLFNTGTITISLEDENDNPPSFTETSYVTEVEENRIDVEILRMKVQDQDLPNTPHSKAVYKILQGNENGNFIISTDPNTNEGVLCVVKPLNYEVNRQVILQVGVINEAQFSKAASSQTPTMCTTTVTVKIIDSDEGPECHPPVKVIQSQDGFPAGQELLGYKALDPEISSGEGLRYQKLGDEDNWFEINQHTGDLRTLKVLDRESKFVKNNQYNISVVAVDAVGRSCTGTLVVHLDDYNDHAPQIDKEVTICQNNEDFAVLKPVDPDGPENGPPFQFFLDNSASKNWNIEEKDGKTAILRQRQNLDYNYYSVPIQIKDRHGLVATHMLTVRVCDCSTPSECRMKDKSTRDVRPNVILGRWAILAMVLGSVLLLCILFTCFCVTAKRTVKKCFPEDIAQQNLIVSNTEGPGEEVTEANIRLPMQTSNICDTSMSVGTVGGQGIKTQQSFEMVKGGYTLDSNKGGGHQTLESVKGVGQGDTGRYAYTDWQSFTQPRLGEESIRGHTLIKN

system: Low density cholesterol (Chl small) plaque particles; assay: Mass spectroscopy proteomics, semi-quantitative binding affinity of serum proteins (plaqueproteome, Table 2); design: species or system human; conditions: higher number = stronger affinity
Summary of the method: (§1)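 Serum or plasma from atherosclerotic subjects, as 50% serum, was incubated with 30 μg cholesterol aggregates for 1 h at 37 °C. High- and low-density particles were then flow-sorted, trypsin-digested and analysed by MS/MS. Proteins were identified by Sequest search against human UniProt and validated with Protein Prophet.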

Row | Molecule | Semi-quantitative analysis of proteins binding to different plaque particles: Chl small
1 | B1 | 0
2 | B2 | 0
3 | B3 | 0
4 | B4 | 1
5 | B5 | 0
6 | B6 | 0
7 | B7 | 0
8 | B8 | 0

system: High Density cholesterol (Chl Large) plaque particles; assay: as above; design: species or system human; conditions: higher number = stronger affinity
Summary of the method: as §1

Row | Molecule | Semi-quantitative analysis of proteins binding to different plaque particles: Chl Large
9 | B1 | 0
10 | B2 | 0
11 | B3 | 0
12 | B4 | 0
13 | B5 | 0
14 | B6 | 0
15 | B7 | 0
16 | B8 | 0

target: T1, alpha-synuclein plaque particles (Homo sapiens, UniProt P37840); assay: as above; conditions: higher number = stronger affinity
T1 construct: 140 amino acids polypeptide
Summary of the method: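 AD-subject plasma or serum (800 μL of 50%) mixed with 30 μg preformed alpha-synuclein aggregates for 1 h at 37 °C; Thioflavin S-positive particles isolated by flow sorting. After reduction, acrylamide alkylation and overnight tryptic digestion, serum proteins identified by MS/MS with Sequest and Scaffold.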

Row | Molecule | Semi-quantitative analysis of proteins binding to different plaque particles: Synuclein
17 | B1 | 0
18 | B2 | 0
19 | B3 | 0
20 | B4 | 0
21 | B5 | 0
22 | B6 | 0
23 | B7 | 0
24 | B8 | 0

target: T2, Abeta-42 plaque particles (Homo sapiens, UniProt P05067); assay: as above; conditions: higher number = stronger affinity
T2 construct: Abeta 1-42
Summary of the method: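 AD patient serum or plasma (50% in PBS) was incubated with Abeta-42 aggregates (30 μg) for 1 h at 37 °C, then stained with Thioflavin S for 30 min. Labeled particles were FACS-sorted, trypsin/Lys-C digested overnight and analyzed by MS/MS. Sequest searched human UniProt; Scaffold/Protein Prophet validated the identifications.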

Row | Molecule | Semi-quantitative analysis of proteins binding to different plaque particles: Abeta-42
25 | B1 | 2
26 | B2 | 4
27 | B3 | 4
28 | B4 | 0
29 | B5 | 2
30 | B6 | 2
31 | B7 | 5
32 | B8 | 4

system: Tau plaque particles; assay: as above; design: species or system human; conditions: higher number = stronger affinity
Summary of the method: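 Serum or plasma proteins captured on Thioflavin S-labelled Tau plaque particles (Tau-74, Tau-275 oligomers preformed in PBS at 37° C for 2 h; 1 h co-incubation at 37° C) were isolated by FACS sorting, then tryptically digested and identified by MS/MS (Sequest, human UniProt, strict trypsin).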

Row | Molecule | Semi-quantitative analysis of proteins binding to different plaque particles: Tau
33 | B1 | 0
34 | B2 | 0
35 | B3 | 0
36 | B4 | 0
37 | B5 | 0
38 | B6 | 0
39 | B7 | 0
40 | B8 | 0
